Data reported in article PMC4095729.

Target: biotinylated DAE10 peptide (Aβ1-10 conjugated to biotin at the carboxy-terminus)
Test: SPR; BIAcore; biotinylated DAE10 peptide (Aβ1-10) immobilised on streptavidin coated chips at low density (4 to 7 RU); whole antibodies injected in triplicate at 100 nM, 30 μl/minute; apparent rate constants, bivalent model, KD corrected for active concentration of antibody

Substance | Kd [nM] | koff [s⁻¹] | kon [M⁻¹ s⁻¹]
Murine 3D6 (whole antibody, IgG2b) | 1.2 | 0.000412 | 361000
Recombinant chimeric 3D6 (IgG1) (antibody) | 1.8 | 0.000589 | 343000
